# Laboratory results: paper doi:10.1101/2020.02.16.951632
# Several values for one entry are separate records, joined by “and”; a condition that tells them apart may be missing. Equal values may be shown once.
# Assays:
# [1] = target: chloride intracellular channel 1 construct CLIC1C24 (UniProt O00299); assay: FRET or BRET
# [2] = target: chloride intracellular channel 1 construct CLIC1C24 (UniProt O00299); assay: two-colour single-molecule TIRF colocalisation with photobleaching step counting
substance,measurement,setting,value
"human αB-crystallin mutant αBc_(C176), fluorescently labelled (natural protein)",initial FRET efficiency (E) of the complexes,[1],0.8 to 1
same,"proportion of CLIC1C24 colocalised with αBc (C176) (maximum, after 4 hr)",[2],50%
same,αBc subunits per complex (0.25 – 0.5 hr),[2],1 subunits and 3 subunits
same,αBc subunits per complex (complexes whose abundance increased after 1 hr),[2],> 6 subunits
same,αBc subunits per complex (more complexes at molar ratio 2:1 to 4:1),[2],> 10 subunits
same,stoichiometry N,[2]; scale: αBc per CLIC1,1
